From paper PMC2174006

Biological target: Flag–Rab32 (human) (UniProt Q13637)
Assay: co-IP

Chain of endogenous PKA holoenzyme (P13861 whole entry, one chain of several): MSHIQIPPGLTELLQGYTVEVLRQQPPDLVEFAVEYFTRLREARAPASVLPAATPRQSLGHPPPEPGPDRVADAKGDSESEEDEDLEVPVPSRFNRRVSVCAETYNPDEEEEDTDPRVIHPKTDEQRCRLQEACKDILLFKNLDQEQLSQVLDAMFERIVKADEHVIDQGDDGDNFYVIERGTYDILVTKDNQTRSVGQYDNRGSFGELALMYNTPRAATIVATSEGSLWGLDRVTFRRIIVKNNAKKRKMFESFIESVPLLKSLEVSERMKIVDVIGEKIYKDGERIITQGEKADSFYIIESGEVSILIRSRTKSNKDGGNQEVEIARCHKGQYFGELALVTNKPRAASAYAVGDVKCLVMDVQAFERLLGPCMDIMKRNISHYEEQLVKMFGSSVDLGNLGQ
Chain of Flag–Rab32 (human) (Q13637 whole entry): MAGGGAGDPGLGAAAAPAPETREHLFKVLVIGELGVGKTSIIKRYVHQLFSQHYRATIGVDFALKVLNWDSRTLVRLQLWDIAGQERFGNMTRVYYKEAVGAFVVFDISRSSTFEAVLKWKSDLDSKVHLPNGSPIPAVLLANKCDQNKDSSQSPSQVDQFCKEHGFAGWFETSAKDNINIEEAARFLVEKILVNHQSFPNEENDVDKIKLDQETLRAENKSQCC

“endogenous PKA holoenzyme (from UniProt P13861 1-404; P17612 1-351) (complex)” showed a fold enrichment of PKA activity in the immune complexes of 7.1 fold.
